The values below are quoted from earlier work in PMC3951274.

Data set [1] concerns the target [α2(IV)454-465][α1(IV)437-448] heterotrimeric THP α2(IV)454-465, α1(IV)437-448 (Homo sapiens) (UniProt P02462).
Data set [2] addresses α1(I)127-138 THP 127-138 (Homo sapiens) (UniProt P02452).

Sequence of UniProt P02462 (P02462 173-1669, chain 1 of 2): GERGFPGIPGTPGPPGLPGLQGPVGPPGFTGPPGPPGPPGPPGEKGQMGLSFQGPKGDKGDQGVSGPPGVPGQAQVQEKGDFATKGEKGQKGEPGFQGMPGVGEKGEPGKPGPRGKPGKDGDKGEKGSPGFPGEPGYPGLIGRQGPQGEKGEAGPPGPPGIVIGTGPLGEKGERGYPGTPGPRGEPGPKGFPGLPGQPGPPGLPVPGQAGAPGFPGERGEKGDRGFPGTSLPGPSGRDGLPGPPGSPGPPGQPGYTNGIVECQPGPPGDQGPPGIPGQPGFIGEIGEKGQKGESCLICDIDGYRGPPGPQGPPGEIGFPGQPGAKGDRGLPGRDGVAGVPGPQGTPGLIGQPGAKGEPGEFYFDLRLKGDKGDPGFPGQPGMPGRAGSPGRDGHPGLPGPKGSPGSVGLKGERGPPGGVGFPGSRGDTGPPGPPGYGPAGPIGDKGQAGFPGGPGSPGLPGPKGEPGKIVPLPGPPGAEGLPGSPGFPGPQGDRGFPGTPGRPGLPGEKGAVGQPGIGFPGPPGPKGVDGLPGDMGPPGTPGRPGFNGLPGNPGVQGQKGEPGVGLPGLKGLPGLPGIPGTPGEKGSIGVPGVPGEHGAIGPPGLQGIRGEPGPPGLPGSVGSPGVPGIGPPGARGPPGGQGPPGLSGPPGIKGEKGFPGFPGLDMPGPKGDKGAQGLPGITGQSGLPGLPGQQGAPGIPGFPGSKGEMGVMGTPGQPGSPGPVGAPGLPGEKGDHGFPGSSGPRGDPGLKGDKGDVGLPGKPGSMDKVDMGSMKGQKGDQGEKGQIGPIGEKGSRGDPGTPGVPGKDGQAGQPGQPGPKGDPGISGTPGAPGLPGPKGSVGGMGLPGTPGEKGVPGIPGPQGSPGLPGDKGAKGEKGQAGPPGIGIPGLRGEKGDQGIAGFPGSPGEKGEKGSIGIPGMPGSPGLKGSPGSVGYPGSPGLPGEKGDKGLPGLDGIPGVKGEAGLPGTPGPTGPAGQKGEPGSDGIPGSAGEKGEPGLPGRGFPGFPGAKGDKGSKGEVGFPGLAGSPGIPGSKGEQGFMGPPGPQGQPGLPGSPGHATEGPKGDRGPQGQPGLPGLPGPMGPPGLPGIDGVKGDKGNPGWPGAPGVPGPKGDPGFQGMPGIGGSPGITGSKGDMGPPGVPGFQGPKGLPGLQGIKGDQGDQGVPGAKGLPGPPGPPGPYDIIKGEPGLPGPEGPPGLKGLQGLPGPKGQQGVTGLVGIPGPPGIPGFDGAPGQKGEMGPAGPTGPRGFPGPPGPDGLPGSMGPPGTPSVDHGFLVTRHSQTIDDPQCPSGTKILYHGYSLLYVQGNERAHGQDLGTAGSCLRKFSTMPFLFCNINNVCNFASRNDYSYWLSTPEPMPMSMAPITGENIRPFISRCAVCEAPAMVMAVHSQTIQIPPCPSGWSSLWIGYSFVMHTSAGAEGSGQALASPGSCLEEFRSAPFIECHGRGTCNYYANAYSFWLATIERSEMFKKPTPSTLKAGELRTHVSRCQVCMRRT
Sequence of UniProt P02462 (P08572 184-1712, chain 2 of 2, further chain): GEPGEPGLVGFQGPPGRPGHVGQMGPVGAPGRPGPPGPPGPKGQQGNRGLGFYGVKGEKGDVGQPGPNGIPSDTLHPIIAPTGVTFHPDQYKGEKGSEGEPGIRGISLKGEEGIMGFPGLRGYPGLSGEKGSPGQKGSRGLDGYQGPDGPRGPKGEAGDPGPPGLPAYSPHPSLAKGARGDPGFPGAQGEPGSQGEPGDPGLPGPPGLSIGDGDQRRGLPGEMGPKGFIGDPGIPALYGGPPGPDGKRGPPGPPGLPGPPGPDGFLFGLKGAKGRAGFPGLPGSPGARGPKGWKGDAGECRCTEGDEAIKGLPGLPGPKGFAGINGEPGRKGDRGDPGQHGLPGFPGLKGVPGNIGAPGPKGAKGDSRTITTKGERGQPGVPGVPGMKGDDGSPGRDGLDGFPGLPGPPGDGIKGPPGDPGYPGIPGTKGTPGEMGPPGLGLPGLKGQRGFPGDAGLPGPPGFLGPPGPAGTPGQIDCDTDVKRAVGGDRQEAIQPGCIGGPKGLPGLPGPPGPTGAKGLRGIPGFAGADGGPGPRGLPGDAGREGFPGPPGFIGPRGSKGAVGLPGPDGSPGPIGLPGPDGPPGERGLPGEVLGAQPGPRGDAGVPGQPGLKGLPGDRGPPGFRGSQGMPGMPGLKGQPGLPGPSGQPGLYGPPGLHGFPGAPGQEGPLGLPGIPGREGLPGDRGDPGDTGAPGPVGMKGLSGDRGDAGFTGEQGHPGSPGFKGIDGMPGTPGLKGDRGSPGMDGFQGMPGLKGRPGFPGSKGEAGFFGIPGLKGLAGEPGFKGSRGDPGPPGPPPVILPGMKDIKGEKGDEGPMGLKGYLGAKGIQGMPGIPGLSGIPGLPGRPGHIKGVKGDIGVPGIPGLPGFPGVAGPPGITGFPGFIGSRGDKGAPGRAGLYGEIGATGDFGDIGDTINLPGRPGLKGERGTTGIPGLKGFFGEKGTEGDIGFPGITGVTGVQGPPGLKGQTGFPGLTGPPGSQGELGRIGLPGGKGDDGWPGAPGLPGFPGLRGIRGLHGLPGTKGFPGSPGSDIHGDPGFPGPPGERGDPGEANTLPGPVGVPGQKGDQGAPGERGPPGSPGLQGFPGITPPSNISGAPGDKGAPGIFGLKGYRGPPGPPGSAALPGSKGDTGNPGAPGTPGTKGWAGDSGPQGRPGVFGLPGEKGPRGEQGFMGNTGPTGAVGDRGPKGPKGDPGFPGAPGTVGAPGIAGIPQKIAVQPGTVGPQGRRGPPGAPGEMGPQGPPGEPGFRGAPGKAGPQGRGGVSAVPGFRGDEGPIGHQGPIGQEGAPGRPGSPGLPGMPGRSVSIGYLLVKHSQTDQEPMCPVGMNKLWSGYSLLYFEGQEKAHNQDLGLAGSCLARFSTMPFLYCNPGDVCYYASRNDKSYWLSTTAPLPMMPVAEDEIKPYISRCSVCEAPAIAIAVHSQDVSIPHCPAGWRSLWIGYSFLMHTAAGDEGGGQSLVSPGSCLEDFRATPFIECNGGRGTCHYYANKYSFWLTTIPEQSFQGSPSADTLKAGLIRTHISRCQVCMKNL

On to integrin α1β1 (from UniProt P56199), for which the Kd in data set [1] was 20 µM.
“integrin α2 I-domain (from UniProt P17301)”: in data set [2], the Kd was 0.4 µM.
